We go through 14 molecules from patent US20190202896A1 (NOVOBIND LIVESTOCK THERAPEUTICS, published 2019).

The chains are these.
T1: FimA (Salmonella Type-1 fimbrial protein, A chain), recombinant (Salmonella (serovar ), UniProt P37921 23-185)
T1 sequence: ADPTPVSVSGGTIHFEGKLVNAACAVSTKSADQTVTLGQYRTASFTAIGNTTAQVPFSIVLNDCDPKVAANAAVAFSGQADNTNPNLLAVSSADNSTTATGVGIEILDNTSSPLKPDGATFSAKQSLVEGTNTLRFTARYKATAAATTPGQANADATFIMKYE

T2: PrgI (Salmonella Type III secretion needle protein), recombinant (Salmonella typhimurium (strain LT2) as …, UniProt P41784 1-80)
T2 sequence: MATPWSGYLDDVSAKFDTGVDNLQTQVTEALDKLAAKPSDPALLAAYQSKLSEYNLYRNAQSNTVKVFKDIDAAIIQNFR

B1: NBX0100 (VHH)
VHH: QVKLEESGGGLVQAGGSLRLSCAVSGSIFSTNLMGWYRQAPGKQRGFVAHITSGGNTDYLDSVKGRFTISRDNAKNTVYLQMNSLKPEDTAVYYCAAQTLGSSYYDAWGQGTQVTVSS
notes: also called Clone 92
B2: NBX0200 (VHH)
VHH: QVQLQESGGGLVQAGGSLRLSCAASGRTSSSAYTAWFRQAPGNEREFVASISWSGTTTYYADPVKGRFTISRDNAKNTVYLQMNSLKPDDTAVYYCAADRRSTIGSPRQQYAYWGQGTQVTVSS
notes: also called Clone 97
B3: NBX0202 (VHH)
VHH: B2 VHH with Y60H, D62H, S71F, A92G, S106T, Q109E
notes: also called Clone 99
B4: NBX0201 (VHH)
VHH: B2 VHH with G26T, A32S, W53Y, N74S
notes: also called Clone 98
B5: NBX0203 (VHH)
VHH: B2 VHH with E6Q, S30P, A32S
notes: also called Clone 100
B6: NBX0210 (VHH)
VHH: QVQLQESGGGLVQAGGSLRLACTASGDISSISVMGWNRQAPGKQQRELVAAIASGGSVKYADSVKGRFTISRDNTKNTVYLQMNSVNAEDTAVYYCAVDTGSPRLTWGQGTQVTVSS
notes: also called Clone 107
B7: NBX0105 (VHH)
VHH: QVQLVESGGGLVQAGGSLRLSCAASGRTFNTYYMGWFRQAPGKEREFVSAIRWSDGGTWYADSMKGRFTISRDNAKNTGYLQMNSLKPEDTAIYYCNANVYDGNRWRTYWGQGTQVTVSS
notes: also called Clone 94
B8: NBX0212 (VHH)
VHH: QVQLQESGGGLVQAGGSLRLSCAASTSILSINAMGWNREAPGNRREMVAIIAPGGTTNYADSVKGRFTITRDISKNTIYLQMNNLKPEDTGVYYCAADPGGQSPLSWGQGTQVTVSL
notes: also called Clone 109
B9: NBX0216 (VHH)
VHH: QVQLQESGGGLVQAGGSLRLSCAASTSILSIDAMGWNRQAPGNQRRDLVAVIARGGSTQYADSVKGRFTITRDISKNTIYLQMNSLKPEYTGVYYCAADPGGASGLSWGQGTQVTVSL
notes: also called Clone 113
B10: NBX0104 (VHH)
VHH: QVQLVESGGGLVQPGGSLRLSCAASGVAFNSRIMGWYRQAPGKQRELVALITSGGSTNYADSVKGRFTISRNNAKKTVYLQMNSLKPEDTAVYYCNIRNYWGQGTQVTVSS
notes: also called Clone 93
B11: NBX0214 (VHH)
VHH: QVQLQESGGGLVQAGGSLRLSCAASGSISSITAMGWNRQAPGNQQRDLVAVIARGGMTKYADSVQGRFTISRDIAKNTVYLQMNSLKPEDTGVYYCALDNGDPRLHWGQGIQVTVSS
notes: also called Clone 111
B12: NBX0217 (VHH)
VHH: B11 VHH with K76N, D99Y
notes: also called Clone 114
B13: NBX0213 (VHH)
VHH: QVQLQESGGGSVQAGGSLRLSCAASGSISSITAMGWNRQAPGNQRELVAVIARGGMIKYDDSVKGRFTISRDIAKNTVFLQMDSLKPEDTGVYYCAVDNGDPRLHWGQGIQVTVSS
notes: also called Clone 110
B14: NBX0108 (VHH)
VHH: QVKLEESGGGLVRAGGSLTLSCGASRGTFRTYSMGWFRQAPGKEREFVAAITWNGKYTYYGDSVQGRFTISKDNAKNTVSLQMNRLNPEDTAVYYCAANPIPTAQPPGIMAARSYVHWGQGTQVTVSS
notes: also called Clone 95

Changes are numbered by the printed parent chain. Where only a bound is given, the exact number is not on record here.

The target in the first test is T1, FimA (Salmonella Type-1 fimbrial …). The test can be described thus: phage ELISA, antigen-coated wells, anti-M13-HRP, A405. (In general: An ELISA detects its analyte on a solid surface through an enzyme-linked reagent.)
Turning to B1, the “binding over background (PBS-only wells)” value is no less than 4 fold. As for B2, the “binding over background (PBS-only wells)” value is no less than 4 fold. Same read-out and setting: for B3 the value was no less than 4 fold; for B4, no less than 4 fold. In the case of B5, the “binding over background (PBS-only wells)” value is no less than 4 fold.

The target in a further test is T2, PrgI (Salmonella Type III secretion …). The test is described as above.
Consider B6, for which the “binding over background (PBS-only wells)” value was no less than 4 fold. As to B7, the “binding over background (PBS-only wells)” value is no less than 4 fold. As to B8, the “binding over background (PBS-only wells)” value is no less than 4 fold.

For the molecule B9, the “binding over background (PBS-only wells)” value is no less than 4 fold. Still for that read-out and setting: in the case of B10 it was no less than 4 fold; in that of B11, no less than 4 fold; in that of B12, no less than 4 fold. The same measure, in the same setting: in the case of B13 it was no less than 4 fold. Regarding B14, the “binding over background (PBS-only wells)” value was no less than 4 fold.
